Results published in publication PMC5179001.

Tested on: RovA (Yersinia pseudotuberculosis (YPIII?))
Test: EMSA
Details: […]) at 25 C or 37 C, buffer

**Q.** Which K half does the source give for “rovA promoter fragment BS I (activating site)” here?
**A.** Its K half is 6.01 nM.

**Q.** “rovA promoter fragment BS II (repressing site)” was tested. Which K half did it give?
**A.** Its K half is 40.7 nM.
